According to IntAct's records for PubMed 26320582:

Biological target: tom1_human TOM1 (UniProt O60784)
Sequence (O60784 whole entry): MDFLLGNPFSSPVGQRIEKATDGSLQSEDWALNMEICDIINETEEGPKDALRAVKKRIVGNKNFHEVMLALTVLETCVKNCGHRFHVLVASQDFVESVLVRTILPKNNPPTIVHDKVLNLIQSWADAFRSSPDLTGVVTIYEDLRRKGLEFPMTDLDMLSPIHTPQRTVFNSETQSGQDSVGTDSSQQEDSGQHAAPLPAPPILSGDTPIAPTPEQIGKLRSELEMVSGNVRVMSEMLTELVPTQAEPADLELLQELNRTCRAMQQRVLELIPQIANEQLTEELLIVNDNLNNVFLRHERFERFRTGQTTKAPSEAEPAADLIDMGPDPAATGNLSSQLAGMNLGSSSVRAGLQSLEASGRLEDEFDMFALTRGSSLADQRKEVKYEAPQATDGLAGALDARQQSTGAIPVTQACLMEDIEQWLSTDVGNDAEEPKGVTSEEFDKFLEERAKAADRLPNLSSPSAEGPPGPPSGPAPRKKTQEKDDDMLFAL

Substance | effect of a mutation on the interaction
Toll-interacting protein (Homo sapiens) (from UniProt Q9H0E2-1) D20A;R23A | decreasing interaction strength
Toll-interacting protein (Homo sapiens) (from UniProt Q9H0E2-1) F21A | decreasing interaction strength
Toll-interacting protein (Homo sapiens) (from UniProt Q9H0E2-1) R9A;V12A | decreasing interaction strength
